Test results as given in US20160361443A1, “Ultrasound Molecular Imaging With Targeted Biocompatible Microbubbles” (University of Pittsburgh - Of the Commonwealth System of …, priority 2015, published 2016).
One block for each substance: values may come before it. Where no end group is shown, it is not given here.

Experiments:
human E-selectin [1] = target: T1, human E-selectin (Homo sapiens, UniProt P16581); conditions: cited from earlier work
T1 sequence (P16581 22-610): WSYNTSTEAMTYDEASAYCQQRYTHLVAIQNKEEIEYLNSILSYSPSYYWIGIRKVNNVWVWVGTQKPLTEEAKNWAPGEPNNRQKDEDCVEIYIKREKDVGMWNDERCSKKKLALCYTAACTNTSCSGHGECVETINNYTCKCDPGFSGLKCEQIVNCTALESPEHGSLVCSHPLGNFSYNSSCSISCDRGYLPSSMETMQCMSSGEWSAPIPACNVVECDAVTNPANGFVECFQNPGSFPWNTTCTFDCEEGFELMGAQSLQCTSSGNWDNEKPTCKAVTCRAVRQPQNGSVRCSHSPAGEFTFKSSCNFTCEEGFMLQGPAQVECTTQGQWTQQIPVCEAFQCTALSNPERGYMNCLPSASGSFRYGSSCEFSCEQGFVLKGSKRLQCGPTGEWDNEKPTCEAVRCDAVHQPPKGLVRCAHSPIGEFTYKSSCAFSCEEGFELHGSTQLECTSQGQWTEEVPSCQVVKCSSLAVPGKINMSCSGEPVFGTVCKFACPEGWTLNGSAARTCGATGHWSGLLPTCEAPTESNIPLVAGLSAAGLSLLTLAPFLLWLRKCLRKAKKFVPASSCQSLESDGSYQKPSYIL

human E-selectin [2] = target: T1, human E-selectin; conditions: static and flow-cell assays; cited from earlier work
[3] = target: rat E-selectin on inflamed (IL-1β-activated) rat heart microvascular endothelial cells / inflamed or post-ischemic rat endothelium (rat) (UniProt P98105); assay: cell-based or functional assay
[4] = target: rat E-selectin on inflamed (IL-1β-activated) rat heart microvascular endothelial cells / inflamed or post-ischemic rat endothelium (rat) (UniProt P98105); assay: parallel plate perfusion chamber, inflamed rat heart microvascular ECs; control microbubble
[5] = target: rat E-selectin on inflamed (IL-1β-activated) rat heart microvascular endothelial cells / inflamed or post-ischemic rat endothelium (rat) (UniProt P98105); assay: parallel plate flow system, normal cultured rat ECs; control microbubble
[6] = target: rat E-selectin on inflamed (IL-1β-activated) rat heart microvascular endothelial cells / inflamed or post-ischemic rat endothelium (rat) (UniProt P98105); assay: parallel plate flow system, activated cultured rat ECs; control microbubble
E-selectin [7] = assay: TNF-α induced E-selectin upregulation in HUVEC cells (immunostaining, electrophoresis gel); assay type: cell-based, human; conditions: TNFα 20 ng/mL for 4 hr vs without TNFα
Text: FIG. 24 presents exempary data of TNF-α induced E-selectin upregulation by immunostaining of HUVEC cells.

E-selectin [8] = assay: RT-qPCR of heart after LPS injection, E-selectin mRNA; assay type: in vivo, rat; conditions: 4 hours post LPS injection
Description: (§1) Wistar Rats were intraperitoneally injected with lipopolysaccharide (LPS) in normal saline (dose: 1 mg/kg) to induce systemic inflammation. Four hours post-injection, rats were anesthetized and intubated.
(§2) LPS treated and untreated (i.e., baseline) hearts were harvested. RNA extraction and reverse transcriptase real-time quantitative polymerase chain reaction (RT-qPCR) for E-selectin, ICAM and glyceraldehyde 3-phosphate dehydrogenase (GAPDH, a house keeping gene) in the heart were performed. E-selectin and ICAM mRNA expression level were expressed as percent of GAPDH.

ICAM = assay: RT-qPCR of heart after LPS injection, ICAM mRNA; assay type: in vivo, rat; conditions: 4 hours post LPS injection
Description: as §1, §2

E-selectin [9] = target: T2, E-selectin (Rattus norvegicus, UniProt P98105); assay: Ultrasound molecular imaging with targeted MB (Mal) in LPS rat inflammation model; assay type: in vivo; conditions: 2×10^7 MB
T2 construct: Immunofluorescent staining in all rats consistently confirmed microvascular E-selectin and ICAM-1 expression in postischemic myocardium; from tissue
T2 sequence (P98105 22-549): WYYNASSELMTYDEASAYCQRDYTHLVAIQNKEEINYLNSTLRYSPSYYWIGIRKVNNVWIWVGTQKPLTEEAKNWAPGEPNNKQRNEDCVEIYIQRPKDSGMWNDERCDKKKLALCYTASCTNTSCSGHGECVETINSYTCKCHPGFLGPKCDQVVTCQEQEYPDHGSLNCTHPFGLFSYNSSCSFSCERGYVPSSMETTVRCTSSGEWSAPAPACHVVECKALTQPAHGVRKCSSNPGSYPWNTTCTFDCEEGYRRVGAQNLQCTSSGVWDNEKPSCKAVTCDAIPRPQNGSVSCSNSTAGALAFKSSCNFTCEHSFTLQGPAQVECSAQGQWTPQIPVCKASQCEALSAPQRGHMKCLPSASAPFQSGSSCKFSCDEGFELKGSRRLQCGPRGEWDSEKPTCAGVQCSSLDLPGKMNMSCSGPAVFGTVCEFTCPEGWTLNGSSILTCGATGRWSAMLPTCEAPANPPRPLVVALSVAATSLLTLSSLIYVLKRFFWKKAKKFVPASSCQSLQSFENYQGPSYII
Description: FIG. 26 presents exemplary data comparing myocardial retention of microbubble populations (2×10^7) either with, or without, a targeting ligand in an LPS rat inflammation model. The data were linearized and a two-phase washout model was fitted to obtain the retained MB concentration in the myocardium.
as §1
Each rat received intravenous injection of targeted MB Esel(MAL) and control MB IgG in random order (2×10^7 MB in 200 μL saline followed by a 200 μL saline flush). Baseline contrast ultrasound images were obtained before each microbubble injection and intermittent contrast ultrasound imaging were performed for 20 min to monitor the adhesion dynamics of MB in the myocardium. Acuson Sequoia 512 clinical ultrasound system (Siemens, Mountain View, Calif.) with a 15 L8 linear array transducer was used for imaging in CPS mode at 7 MHz.
Microbubble (MB) signals in the anterior myocardium and in the left ventricular cavity were also analyzed. […] Signal intensity was linearized and a two-phase washout model
was used to calculate the amount of MB retention in the myocardium.

Substance: H2NDITWDQLWDLMK-COOH (H-DITWDQLWDLMK-OH) [AF10166]
- Kd value (human E-selectin [1]; believed, from phage display library screening): low nanomolar range
- IC50 (human E-selectin [1]): 4.4 nM
- Neutrophil adhesion (human E-selectin [2]): blocks neutrophil adhesion

- adherent microbubbles per field, intravital microscopy of TNF-α-inflamed rat cremaster microcirculation (control microbubble) [3]: 1.1 MBs/field
- background-subtracted videointensity, postischemic LAD bed (control microbubble) [3]: 1.7 dB
- myocardial videointensity, post-ischemic bed (control microbubble) [3]: 2 dB
- adherent microbubbles per endothelial cell (MB/EC) [4]: 2.3 MB/EC
- adherent microbubbles per endothelial cell (MB/EC) [5]: 2 MB/EC
- adherent microbubbles per endothelial cell (MB/EC) [6]: 2 MB/EC
Substance: MBIgG: polymer/albumin double-shell microbubble bearing rat biotinylated immunoglobulin G (non-specific IgG, BD Biosciences) via biotin-streptavidin bridging (antibody)

Substance: TNFα
- E-selectin expression (in words) (E-selectin [7]): significant upregulation

Substance: lipopolysaccharide [LPS]
- Esel mRNA expression (E-selectin [8]): 2.28±1.32 % of GAPDH
- ICAM mRNA expression (ICAM): 6.09±3.14 % of GAPDH

- Myocardial MB concentration, more as compared with control IgG MB injection (E-selectin [9]; 6 minutes post-injection, 4 h post LPS 1 mg/kg): 185%
- Retained MB in the myocardium (Ar term) as compared with control MB injection (E-selectin [9]; two-phase washout model fit, 4 h post LPS): 330%
Substance: targeted MB: Polymer microbubble conjugated to E-selectin targeting peptide by thioether bond (maleimide-thiol chemistry) (CDITWDQLWDLMK; not fully specified (residue 1); also: N-terminal Cys thioether to maleimide linker BM(PEG)3 on microbubble shell)
